Test results taken from PMC314469, “Protein Interaction Networks by Proteome Peptide Scanning” (PLoS Biology, 2004).

T1: amphyphisin SH3 (AMPH_HUMAN), P49418
T1 chain: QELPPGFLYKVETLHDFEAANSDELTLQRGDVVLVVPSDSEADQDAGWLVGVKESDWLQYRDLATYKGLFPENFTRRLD

B1: O43157 127-140 (peptide)
chain: LEQLLLRPERPGDT
B2: Q9H9E5 251-264 (peptide)
chain: LERRLKRPRTQGVV
B3: Q9BYZ6 230-244 (peptide)
chain: APFLPPKPPPPIIV
B4: Q96RW7 67-80 (peptide)
chain: LETSLKRPKRPLFN
B5: Q15018 147-160 (peptide)
chain: LEYVLFRPNRRYNQ
B6: Q9H6N9 50-63 (peptide)
chain: LFFELRRPPQHGVL
B7: P81489 12-26 (peptide)
chain: LFIIPPKPPGRPQG
B8: Q9P260 301-314 (peptide)
chain: LFNLIKRPDDEQRQ
B9: Q9ULW2 164-177 (peptide)
chain: LFPPLFRPQRPHSA
B10: Q9HCK5 75-88 (peptide)
chain: LFQPPRRPGLGTVG
B11: Q8WXD9 1320-1334 (peptide)
chain: LGASPAKPPSPGAP
B12: P41440 258-271 (peptide)
chain: LGDSLRRPQLRLWS
B13: Q969P6 16-29 (peptide)
chain: LGEVPRRPASRGVP
B14: Q9NR05 56-70 (peptide)
chain: APLLPPRPPPLPPV
B15: Q92729 834-847 (peptide)
chain: LGGSPRRPSGRKGS
B16: Q96QH2 497-511 (peptide)
chain: LGHPPAKPPLPPGP
B17: O15504 407-421 (peptide)
chain: LGKIPLKPPPLELL
B18: Q9NRD6 13-26 (peptide)
chain: LGKVIRRPPLTEKL
B19: P13942 112-125 (peptide)
chain: LGLELGRPVRFLYE
B20: Q13290 172-185 (peptide)
chain: LGLLFRRPEALQVG
B21: Q9H7S9 349-363 (peptide)
chain: LGLPPGKPPSSSPL
B22: O14927 499-512 (peptide)
chain: LGLRLSRPYRLAAG
B23: Q9ULA1 146-159 (peptide)
chain: LGLSFRRPNVITLL
B24: P54259 848-862 (peptide)
chain: LGPVPHRPPFEPGS
B25: Q8WU02 149-162 (peptide)
chain: APPELRRPSHLHTS
B26: Q9Y5L9 821-835 (peptide)
chain: LGPVPVRPPPGPEL
B27: P07360 19-32 (peptide)
chain: LGQKPQRPRRPASP
B28: Q9Y570 9-23 (peptide)
chain: LGRLPSRPPLPGSG
B29: P42568 55-68 (peptide)
chain: LHESFPRPKRVSKD
B30: O75593 148-162 (peptide)
chain: LHGRPYRPPSPPPP
B31: Q9H6Y5 142-155 (peptide)
chain: LHLVIRRPLETHPG
B32: Q13011 68-81 (peptide)
chain: LHVQLNRPNKRNAM
B33: O60241 813-827 (peptide)
chain: LILPPPRPPLAVTS
B34: Q15715 82-95 (peptide)
chain: LIQELRRPKYSIYF
B35: Q12789 943-956 (peptide)
chain: LIRFLPRPIRQQLL
B36: Q96FN5 451-465 (peptide)
chain: APPLPVRPPKTSPG
B37: Q9UMF0 113-126 (peptide)
chain: LIRTFQRPDRVELM
B38: Q99760 384-397 (peptide)
chain: LKAPPARPVKGAYR
B39: O43630 494-507 (peptide)
chain: LKEILKRPVDPIRA
B40: P30622 114-127 (peptide)
chain: LKGIFTRPSKLTRK
B41: Q9NR84 149-162 (peptide)
chain: LKVQLKRPKDANRP
B42: Q9NQQ2 431-444 (peptide)
chain: LKVWPPRPGRWPSF

Experiments:
[1] = molecular target: endophilin SH3 (SH3G2_HUMAN), Q99962; assay: SPOT array
[2] = molecular target: T1, amphyphisin SH3 (AMPH_HUMAN), P49418; assay: SPOT array

Row | Binder | normalised SPOT signal, Boehringer light units (BLU); mean over the file's lines of this peptide [1] | normalised SPOT signal, Boehringer light units (BLU); mean over the file's lines of this peptide [2]
1 | B1 | 147 | 68.8
2 | B2 | 20 | 34.4
3 | B3 | 1320 | 35.1
4 | B4 | 93.1 | 1410
5 | B5 | 54.6 | 451
6 | B6 | 168 | 12.7
7 | B7 | 538 | 459
8 | B8 | 34 | 16.2
9 | B9 | 10200 | 5720
10 | B10 | 1840 | 1500
11 | B11 | 102 | 62
12 | B12 | 6 | 14.9
13 | B13 | 1050 | 22.2
14 | B14 | 4020 | 1400
15 | B15 | 122 | 34.3
16 | B16 | 264 | 64.4
17 | B17 | 61.2 | 72.5
18 | B18 | 277 | 4.7
19 | B19 | 245 | 218
20 | B20 | 61.1 | 12.2
21 | B21 | 45.5 | 23.4

Row | Binder | normalised SPOT signal, Boehringer light units (BLU); mean over the file's lines of this peptide [1] | normalised SPOT signal, Boehringer light units (BLU); mean over the file's lines of this peptide [2]
22 | B22 | 315 | 1650
23 | B23 | 300 | 38.4
24 | B24 | 41.8 | 65.2
25 | B25 | 145 | 33.1
26 | B26 | 81.8 | 33.4
27 | B27 | 34600 | 16800
28 | B28 | 14800 | 269
29 | B29 | 391 | 3510
30 | B30 | 246 | 218
31 | B31 | 596 | 49.4
32 | B32 | 128 | 193
33 | B33 | 3500 | 1060
34 | B34 | 169 | 46.5
35 | B35 | 3730 | 1740
36 | B36 | 2280 | 4490
37 | B37 | 224 | 6100
38 | B38 | 3650 | 238
39 | B39 | 55.3 | 5.8
40 | B40 | 192 | 121
41 | B41 | 69 | 28.8
42 | B42 | 1090 | 2610
